# doi:10.1101/2020.01.14.905984 (bioRxiv, 2020)
# B1: CHUP1_716-982, C-terminal fragment of CHUP1 (domain or fragment)
# chain: NKVHRAPELVEFYQSLMKRESKKEGAPSLISSGTGNSSAARNNMIGEIENRSTFLLAVKADVETQGDFVQSLATEVRASSFTDIEDLLAFVSWLDEELSFLVDERAVLKHFDWPEGKADALREAAFEYQDLMKLEKQVTSFVDDPNLSCEPALKKMYKLLEKVEQSVYALLRTRDMAISRYKEFGIPVDWLSDTGVVGKIKLSSVQLAKKYMKRVAYELDSVSGSDKDPNREFLLLQGVRFAFRVHQFAGGFDAESMKAFEELRSRA
# B2: CHUP1_611-1004 (CHUP1-C), C-terminal fragment of CHLOROPLAST UNUSUAL POSITIONING 1 (domain or fragment)
# chain: ITATGDQSNESNESNEGKASENAATVTKMKLVDIEKRPPRVPRPPPRSAGGGKSTNLPSARPPLPGGGPPPPPPPPGGGPPPPPGGGPPPPPPPPGALGRGAGGGNKVHRAPELVEFYQSLMKRESKKEGAPSLISSGTGNSSAARNNMIGEIENRSTFLLAVKADVETQGDFVQSLATEVRASSFTDIEDLLAFVSWLDEELSFLVDERAVLKHFDWPEGKADALREAAFEYQDLMKLEKQVTSFVDDPNLSCEPALKKMYKLLEKVEQSVYALLRTRDMAISRYKEFGIPVDWLSDTGVVGKIKLSSVQLAKKYMKRVAYELDSVSGSDKDPNREFLLLQGVRFAFRVHQFAGGFDAESMKAFEELRSRAKTESGDNNNNNNNNSNEEESVN
# Columns and labels:
# crystal structure = molecular target: the molecule itself; test: crystal structure
# SEC = molecular target: the molecule itself; test: SEC
Protein,binding result (crystal structure),stoichiometry N (SEC)
B1,binds,
B2,,2
